The source of these data is patent publication US20030166216.

In series [1] the test system is poly (Arg, Pro, Thr) 6:3:1.
Series [2] relates to protein kinase C (PKC) substrate.
The subject of series [3] is mylein basic protein (MBP).

B1: human checkpoint kinase (hChk1) (enzyme)
chain: MAVPFVEDWDLVQTLGEGAYGEVQLAVNRVTEEAVAVKIVDMKRAVDCPENIKKEICINKMLNHENVVKFYGHRREGNIQYLFLEYCSGGELFDRIEPDIGMPEPDAQRFFHQLMAGVVYLHGIGITHRDIKPENLLLDERDNLKISDFGLATVFRYNNRERLLNKMCGTLPYVAPELLKRREFHAEPVDVWSCGIVLTAMLAGELPWDQPSDSCQEYSDWKEKKTYLNPWKKIDSAPLALLHKILVENPSARITIPDIKKDRWYNKPLKKGAKRPRVTSGGVSESPSGFSKHIQSNLDFSPVNSASSEENVKYSSSQPEPRTGLSLWDTSPSYIDKLVQGISFSQPTCPDHMLLNSQLLGTPGSSQNPWQRLVKRMTRFFTKLDADKSYQCLKETCEKLGYQWKKSCMNQVTISTTDRRNNKLIFKVNLLEMDDKILVDFRLSKGDGLEFKRHFLKIKGKLIDIVSSQKVWLPAT
modifications: possible His tag
For the protein B1, the “in vitro protein kinase phosphorylation assay ([gamma-33P]ATP incorporation, cpm)” value with calmodulin substrate was “hChk1 showed the highest phosphorylating activity using a calmodulin substrate or the synthetic peptide substrate, poly (Arg, Ser) 3:1”; in series [1], “significant activity was also found with ... poly (Arg, Pro, Thr) 6:3:1”; with poly (Arg, Ser) 3:1, “hChk1 showed the highest phosphorylating activity using a calmodulin substrate or the synthetic peptide substrate, poly (Arg, Ser) 3:1”; in the series on casein, “significant activity was also found with ... casein”; in the series on cAMP substrate, “significant activity was also found with ... cAMP substrate”; in series [2] it was “significant activity was also found with ... protein kinase C (PKC) substrate”. Also, the “in vitro protein kinase phosphorylation assay ([gamma-33P]ATP incorporation, cpm)” value in series [3] is recorded as “significant activity was also found with mylein basic protein (MBP)”.
